Data as given in the supplement of paper PMC10567573.

B1: ADD1 (parent)
chain: LRHSFQKQQREKTRWLNSGRGDEA

Variants of: B1
Assay: protein stability index of a GFP-peptide fusion (GPS, HEK-293T) (PSI 1-6); higher = more stable
Details: c terminus: a fixed tail appended
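Also: lentivirally expressed fusions sorted by FACS into six bins by GFP to DsRed ratio, PSI derived from sequencing read proportions per bin multiplied by bin number.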

Protein stability index: each site, then its substitutions
Q6: L 3.54 | H 3.69 | Y 2.85 | P 4.11 | K 3.99 | M 3.49 | W 2.53 | E 4.14 | A 3.78 | S 3.18 | T 3.7 | N 3.87 | I 3.25 | V 3.56 | F 3.21 | G 3.11 | D 4.37 | C 2.27 | R 3.7
G19: D 4.6 | S 3.81 | N 3.6 | P 3.65 | Y 3 | V 2.82 | Q 3.7 | I 2.73 | H 3.56 | C 2.22 | E 4.29 | L 3.35 | M 3.57 | W 2.63 | K 3.69 | A 3.82 | T 3.37 | R 3.65 | F 2.83
D22: A 3.57 | S 3.9 | M 3.47 | G 3.62 | I 2.68 | R 3.73 | L 2.71 | H 3.94 | C 3.18 | P 2.83 | T 3.29 | F 3.64 | Q 3.74 | E 3.89 | K 3.4 | N 3.69
R14: I 3.02 | K 3.78 | S 4.03 | G 4.03 | H 3.98 | Y 2.76 | A 3.58 | D 3.52 | V 3.95 | C 2.68 | E 4.59 | Q 4.3 | W 3.25 | L 3.02 | T 3.15 | N 3.58 | M 3.42 | P 3.86 | F 3.52
T13: N 4.27 | F 3.29 | H 3.9 | M 3.25 | C 3.6 | R 3.83 | W 2.58 | L 3.54 | P 3.52 | G 4.07 | S 3.36 | Y 2.93 | D 4.12 | K 3.91 | Q 3.2 | I 4.01 | A 3.53 | E 4.27 | V 3.26
K12: M 3.42 | Q 3.85 | E 4.24 | L 3.51 | C 3.79 | N 3.73 | G 4.09 | W 2.72 | P 3.56 | I 3.46 | D 3.96 | H 3.58 | S 3.54 | V 3.27 | A 4.1 | F 3.05 | T 3.57 | Y 3.48 | R 3.88
R20: L 2.24 | N 3.62 | C 3.91 | W 3.26 | M 3.78 | K 4.03 | A 3.84 | P 4.17 | S 4.12 | G 3.71 | E 4.28 | F 3.21 | T 3.75 | V 3.88 | H 4.05 | D 4.88 | Q 3.95 | I 3.54 | Y 3.47
E11: R 3.65 | H 3.27 | Q 2.87 | P 3.91 | A 3.41 | D 4.47 | Y 2.36 | W 2.56 | I 2.21 | C 1.93 | N 2.57 | S 3.13 | F 2.24 | K 3.17 | M 2.26 | G 3.27 | L 2.28 | V 2.88 | T 3.11
N17: Y 2.91 | S 3.88 | Q 3.83 | M 3.05 | R 2.49 | T 3.4 | F 3.14 | D 3.94 | L 3.05 | V 4.03 | I 2.7 | G 3.82 | A 3.81 | K 3.65 | E 3.95 | C 3.15 | P 4.03 | W 2.59 | H 2.54
K7: S 4.24 | H 3.53 | T 3.67 | P 3.86 | M 3.22 | I 3.1 | Q 4.27 | W 3.08 | N 4.21 | D 3.87 | E 4.33 | R 3.01 | F 3.63 | C 1.8 | V 3.38 | Y 3.51 | L 3.89 | G 4.57 | A 3.95
R10: Y 3.64 | L 3.82 | C 3.58 | T 3.83 | I 3.65 | Q 4.44 | M 3.44 | A 4.17 | H 4.13 | V 3.48 | F 3.92 | G 3.72 | N 3.95 | D 4.23 | S 4.58 | P 3.53 | W 2.66 | E 4.67 | K 3.9
S18: G 3.92 | L 3.39 | E 4.28 | F 2.87 | Q 3.55 | N 3.96 | W 3.51 | I 3.85 | V 3.53 | A 4.02 | D 3.11 | H 3.19 | K 3.67 | P 3.93 | C 3.26 | M 3.36 | Y 3.79 | T 3.51 | R 2.63
G21: H 3.2 | A 4 | L 3.64 | K 3.84 | W 3.03 | E 3.99 | T 3.33 | D 4.42 | M 3.4 | Y 3.01 | P 3.71 | S 3.63 | F 3.39 | V 3.59 | C 3.21 | R 3.47 | Q 3.49 | N 3.43 | I 3.42
F5: R 3.43 | H 4.24 | P 4.4 | T 4.11 | N 4.37 | W 3.44 | M 3.8 | Q 4.19 | Y 3.71 | K 3.7 | L 3.83 | V 4.17 | S 4.17 | G 4.16 | I 3.74
W15: E 4.81 | F 4.05 | R 4.62 | T 4.65 | Q 4.84 | P 4.66 | L 4.38 | M 4.25 | D 4.42 | V 3.97 | I 4.27 | C 3.73 | N 4.54 | Y 4.17 | S 4.68 | G 4.72 | K 4.08 | H 5.01 | A 4.07
L16: Y 3.42 | T 3.57 | C 4.06 | E 4.72 | G 4 | Q 4.01 | A 3.66 | S 4.22 | P 4.57 | R 4.03 | N 3.94 | M 3.88 | D 4.69 | I 3.67 | K 4.22 | F 3.28 | H 3.42 | W 2.35
Q8: F 2.73 | I 3.64 | K 3.35 | P 4.13 | N 3.15 | S 3.63 | E 3.83 | R 3.48 | Y 2.71 | H 3.41 | L 3.05 | C 2.62 | A 4 | T 3.93 | D 3.87 | M 3.32 | V 3.48 | G 3.52 | W 2.08
Q9: H 3.7 | K 3.92 | L 3.23 | Y 3.01 | D 4.06 | N 3.72 | W 2.94 | G 4.15 | F 2.71 | E 4.29 | P 3.44 | R 3.75 | S 3.64 | T 3.83 | I 3.18 | V 3.35 | A 4.12 | C 1.73 | M 3.84
